Assay: soluble on expression in E. coli; label from the status in PepcDB or PDB records

Sequence | soluble on expression in E. coli
ISVLDLTPVSTGQQPGEALRHTLELAEVADSYQYTRFWIAEHHNSGAFVSAATEILIALAAARTGRIRVGSGGVMLPNHSPLKVAENFMSLEALFPGRIDLGLGRAPGTDGRTALALRRSREALAADDFPTQIALLRAFAGETPWPAGSVFDGVLAEPRGVKLPPLWILGSSLYGAQLAGELGVGYAFAYHFSQEDPAVAVQTYHRHFRPGPLAEPYAILGVNALAAPTEDEARDLSLTSAALSLGILSGQRGVLRSPEEARQWLQEMDTDPAKLLKKARIGTPEQVWASLQELGESTGAQEMLVTTYAHDPLKRQQSYRLLAQ | not soluble
MSDPAGNRPKTEKELKKEAEKAAKLAKFEEKQKKLAEKKAAASDKPVKEAKAKKEQTVEAAEPVDQTPTGQRKKIDGEIPAAYFPGYVESGWYSWWEKEGFFKPEYIDKLNPGSNPADSFTVCIPPPNVTGNLHVGHALATTVEDTITRFNRMHGKRTLFNPGCDHAGIATQVVVEKRLKRERGLTRHDLGRDRFNQEVWHWKNEKGDVIYDQFRKLGASVDWDRAVFTMDPKMCRAVTEAFIRMHESGTIYRSNRLVNWSCALRSAISDIEVDKKELTGSTLIAVPGYDKKIEFGVLNSFAYKIQGSDEEIVVSTTRIETMLGDSGVAVHPDDQRYKHLVGKQCIHPFIPTRNLPIFADSFVEMEFGTGAVKITPAHDHNDYEVGIRQNLPFHNCITDDGLISQGCGEFSGMKRFDARTAVIEALKEKGLYRGKEDNPMVVPTCSRSKDVIEPILKPQWYVKCAHMAEKAVAAVANGDLQIIPEFHKATWNRWLESSRDWCISRQLWWGHRIPAYYISFADGREQPLPEENYWVSARTEQEALAKAAQKFQVPEAEILLKWDEDVLDTWFSSGMWPFAVFGWPDATKDMDLFFPGAVLETGHDILFFWVARMVFMAQELTGKLPFKEILLHAMIRDAHGRKMSKSLGNVIDPLDVIRGISLNDLQAQLLGGNLDEKEIAVAKEGQARDYPDGIPECGVDALRFALLSYTSQGRDINLDVLRVHGYRKFCNKLWQVVRFALARISDKPEQKPTFEINLKSATPTDLWILSRLAKAVKETNEALKAYNFTQATTVTYNFWLYDFCDVYVETIKPVLYGDNTTLRQVAISVLHKCIDTGLRLISPLMPFISEELWQRMPRLDDSDYTSPSIIVAQYPLTQKYEKYQNEKLEAAFEFAQELIGKVRSLRADYDLKKTKITMQILSETPEDESMLNDISAVITTLTFSEKVSILNKCESDKIEKGSAHIACGGRCQVYINLTGIIDVPKEIEKLGAKLQKNQISVKKIGDIQSSADYEQKVPVDIRALDQEKKATLEKEIENITAAIAQLKALN | not soluble
MSHVELQPGFDFQQAGKEVLAIERECLAELDQYINQNFTLACEKMFWCKGKVVVMGMGKSGHIGRKMAATFASTGTPSFFVHPGEAAHGDLGMVTPQDVVIAISNSGESSEITALIPVLKRLHIPLICITGRPESSMARAADVHLCVKVAKEACPLGLAPTSSTTATLVMGDALAVALLKARGFTAEDFALSHPGGALGRKLLLRVNDIMHTGDEIPHVKKTASLRDALLEVTRKNLGMTVICDDNMMIEGIFTDGDLRRVFDMGVDVRQLSIADVMTPGGIRVRPGILAVEALNLMQSRHITSVMVADGDHLLGVLHMHDLLRAGVV | soluble
GPGSMPNPYTGNYEAARFVEYYASAQMLRDSVHRLHTVSIQRHMDALRRAESAHQKHTCPAAPIRSRQQIEEHANRMVYQEMLRRQKNMTKLAWDVYKPVPPKRLSSEELRSLVKRMYEQQMQNMTERKKEARQRQVVLSDEVLAETRRGRRMLRQRDIHRSLESGWRTPSSRAKYNDGKLLLVSGGNVKSTSKERPPDLGYLARLAKPLRPTERVNKC | not soluble
MPAINAKRVYRIMRQNALLLERKPAVPPSKRAHTGRVAVKESNQRWCSDGFEFCCDNGERLRVTFALDCCDREALHWAVTTGGFNSETVQDVMLGAVERRFGNDLPSSPVEWLTDNGSCYRANETRQFARMLGLEPKNTAVRSPESNGIAESFVKTIKRDYISIMPKPDGLTAAKNLAEAFEHYNEWHPHSALGYRSPREYLRQRACNGLSDNRCLEILEHHHHHH | soluble
MSYSDLLRELAAAHAISSSYSGFGGAHVEVSDDTLVKTLRSLGVCFGNEDEPATDHEPLTGPMPSEDQIRYALQQRYDAEATRPLPRCVVAVEGDPYVFNVHVHDGAPADITITLEDGSTAEVTQVENWAPPREVDGITWGEASFQLPSDLPLG | not soluble
GMIPIVDSRIGAYLDGLLPEADPVVAAMEQIARERNIPIVDRQTGRLLYLLARIKQPQLVVVPGDGLGCASWWFARAISISSRVVMIDPDRDNVEHARRMLHDNGLIDRVELQVGDPLGIAAGQRDIDILFMDCDVFNGADVLERMNRCLAKNALLIAVNALRRGSVAESHEDPETAALREFNHHLSRRRDFFTTIVPVGNGVLLGYRLS | soluble
MSEEGFMLAVLKGIPLIQDIRAEGNSRSWIMTIDGHPARGEIFSEAFSISLFLNDLESLPKPCLAYVTLLLAAHPDVHDYAIQLTADGGWLNGYYTTSSSSELIAIEIEKHLALTCILKNVIRNHHKLYSGGV | not soluble
MVNFFRLNLSSNQAAAVTVSETAELPEALEQLGLSNSRPVLVIVGGASQTSEADFLRIQSLFVEVLAPIAQSLGAYVVDGGTDAGVMRLMGDARSQINGQFPLIGVAPTAKVILPNQTTILADDATPLEPHHSHFVLIPGSKWGDESPWIVKVATLLANGLPSITVLINGGEISFIDALNSVIAGRLVIVIAGSGRTADKIASALRGYATDERATELAASDHIQTIDLEAAPEELIDTMTNLLLNLEHHHHHH | not soluble
MQRARCYLLGETAVVLELEPPITLASQKRIWRLTQRLVDMPNVVEAIPGMNNITVILREPQTLALDAIERLQRWWEESEALEPDSRSVEIPVIYGGAGGPDLAAVARHSGLSEKQVVELHASVEYVVWFLGFQPGFPYLGNLPEPLHMPRRAEPRLQVPAGSVGIGGAQTGIYPLSTPGGWQLIGLTPLKLFDPMRETPVLLRPGDSVRFVPQKEGICMAGDPLEHHHHHH | not soluble
MVHIKKGELTQEEKELLEVIGKGTVQEAGTLLSSKNVRVNCLDENGMTPLMHAAYKGKLDMCKLLLRHGADVNCHQHEHGYTALMFAALSGNKDITWVMLEAGAETDVVNSVGRTAAQMAAFVGQHDCVTIINNFFPRERLDYYTKPQGLDKEPKLPPKLAGPLHKIITTTNLHPVKIVMLVNENPLLTEEAALNKCYRVMDLICEKCMKQRDMNEVLAMKMHYISCIFQKCINFLKDGENKLDTLIKSLLKGRASDGFPVYQEKIIRESIRKFPYCEATLLQQLVRSIAPVEIGSDPTAFSVLTQAITGQVGFVDVEFCTTCGEKGASKRCSVCKMVIYCDQTCQKTHWFTHKKICKNLKDIYEKQQLEAAKEKRQEENHGKLDVNSNCVNEEQPEAEVGISQKDSNPEDSGEGKKESLESEAELEGLQDAPAGPQVSEE | soluble
MSLTTLKCVMQWTWRKTPERTIEVHKKNVNALKLLLIGSPGREQSYTPRDKRSNMHFLKKLGDFQDLEHTVDALKDWHTREKADAVLGLGDMLGLPGATTVRDERFQKKWHDIFIKDAGLDIPWLMTLGDADSVLSPSSQIRYHYSVQQKNWHMPNDYYTVNFKFGANLTLANGMFEETAFNATVIAINTWDLFVGNPVANNMASWTNKLWWLSEQLYQATQKNSSWIIVMGHHPMLSTGTEGEQARLQNIDDLSKSRRSRGLESFLINTLFMHYQVDAYVSGHDHLMEYNSITDVDRNVTVEGHHHHHH | not soluble
MAHHHHHHMSGRAGRRGLDRVGVVIAMVDEAVEPETLKQLTGGGADVLNSSFHLTYNMVLNLLRVEDVDPEFMMHRSFAQFQRLRNRPVLEKRAEALTEEIESIHVEHEEVFRQFTLCQELLANRRKQLADILKQPTFLKRFTHSGRLLRIRRAADDVLFNWGICRAFHAKVPNADPKSPSEFSVDVAVICLKANAAKPTSLLPCHVNDFTTSTADLYTLTFDFTDIEGVARFRVNLPAEPDTESGRAQMVQTLSKLHRQYDDKVPLLTAEEMGVDDPQFEKLRVQVERLEAQLAENEFVQNPTKELESDFERFTHRAKLEKELNDIREELNQASRAIFSEELKQMMRVLRRLDYIDKDNVILRKARVACEITTTDENEILLTELLFKGVLNSMETEMIVALMSCLVNVHRTPDGFSLPEEFQQPLKELNEIVSRIATVSIESGVLQEGGVGVERTMPSLMEVTYMWAKGAKFVDIMSKTSAYEGEIVRMMRRLEEQLRQMAGAARSPAIGSMELHDKFLKGIQLIKRDIVFVSSLYL | not soluble
KGFFALSSCTLGLGLILTACGARGKFDQVDDGVIKLATSIQNKDSIAALNTIYKKYKERHPGSYPVQNFQVPGGYSGLRNDIRTRLSAKDGNNFYNI | not soluble
MEVAPSFSSVLKDCAVIEGQDFVLQCSVRGTPVPRITWLLNGQPIQYARSTCEAGVAELHIQDALPEDHGTYTCLAENALGQVSCSAWVTVH | soluble
MPKASDIKKGSAIEHNGKVFFVKEISKLTPSGRAGATLFRMRMYDVATGAKSDESFKADDMINLADFSRRSATFSYVDGNEYVFMDSEDYTPYNFNKEAIEEELLFITEETQGLQILIVDGAPVAIELPSAVDLEIVETAPSIKGASASARTKPATMTTGLTVQVPEYIANGEKVKINTTEHKFMSRALEHHHHHH | not soluble
MSLSEAGHKFLAKLGKKRLRPGGKRATDWLIAEGGFSKEKRILEVACNRGTTAIELAQRFGCKITAVDMDAQALEVAKKSAGTAGVAHLISFERANAMKLPYQDASFDIVINEAMLTMQADQAKKKCVMEYLRVLKPGGLLLTHDVLLKEAKESIRQELSQAIHVNVGPLTQDGWEQVMIESGYCDVKALTGEMTLMKLSGMIYDEGLLGTLKICVNACKKENRKQFLTMYKMFAKNKQKLGFIAMASYKSSKREGHHHHHH | not soluble
MKPESHCVYLELSAEREHKFYEVTVEGAELTIRYGRIGTEGQTQRKSFADSAGAQAEAEKKLVEKRKKGYGDAVRGQTEKKAVEQPRLKLPRKFEPYRERIEATLRPVLLLEVLEEEPGPLGSKVGGVPYRVQGEAWPTDTEGRPLTFLAQLNFADLPPLEGYPENGILQFFIGRDDLYGCDFMRPEEGNPASFEVRWSPEPQMDLSQLDVETPDFDDDGFSPLETLRGFGLRGQQVEQPMSWCDCHFEQAIGLDLCDNSEGPEGRALGEWRQEKYDELATYGHQVGGYPSFTQEDPRTADDPRILLFQLDSEAGKITWGDVGIANFFIDPDDLARWDFSRVAYNWDCTLEHHHHHH | soluble
MAHHHHHHMAVNARHDLLYECLGLVYELYGGLAEDLQELHDDPLHPHFHRRIARIKRDRERIATELDKRYAKLHPTVKTVYDAFLVRRYYHLADWIEHVERKRERLINDLSPDVMEKTMRMRGIAEQYLRHLRALEHALYEDPLMGLLGGDRGTNVLDQYTPGELAMLRQKAAYFRNMRRFGANQLDADMHTH | not soluble
MGSDKIHHHHHHMIKFGEAVLGNEIKAIVNVALGKGELIENTFTNALTRGNCVFANLRPNLIVKPLTLVVPRHNIESEIQDELFQGVIQYAVAKAVADLDLDEDLKVVVSVNVPEVPITNLNKRKLFQYFYASAKLAINRALNEYPSKEKVKKEKYRALHPLVGFRDVRLEYPPYLQIALDVPTMENLEFLLQTIPNSDHIILEAGTPLIKKFGLEVIEIMREYFDGFIVADLKTLDTGRVEVRLAFEATANAVAISGVAPKSTIIKAIHECQKCGLISYLDMMNVSEPQKLYDSLKLKPDVVILHRGIDEETFGIKKEWKFKENCLLAIAGGVGVENVEELLKEYQILIVGRAITKSKDPGRVIRMFINKMGYDIDTYRLYFDEDEDIGEEL | not soluble

From the DeepSol protein solubility set
